From PMC3916842

How the values were obtained:
[1] = target: talin (human) (UniProt Q9Y490); test: FRAP on a spinning disk confocal microscope
[2] = target: talin (human) (UniProt Q9Y490); test: FRAP on a TIRF microscope
[3] = target: talin (human) (UniProt Q9Y490); test: TIRF microscopy of recruitment to a protein-micropatterned surface

**Q.** With “EGFP-vinculin 1-851 (Vh) (from UniProt P18206 1-851) (domain or fragment)” as the substance, how does the koff [1] read?
**A.** 0.0029 s⁻¹

**Q.** What about the koff [2] of the same substance?
**A.** 0.0033 s⁻¹

**Q.** What about the koff [3] of the same substance?
**A.** 0.0034 s⁻¹
